# Columns and labels:
# [1] = biological target: peptide 121 (human); experiment: peptide microarray
# [2] = biological target: peptide 125 (human); experiment: peptide microarray
# [3] = biological target: peptide 13 (human); experiment: peptide microarray
# [4] = biological target: peptide 16 (human); experiment: peptide microarray
# [5] = biological target: peptide 69 (human); experiment: peptide microarray
# [6] = biological target: T1, Purified recombinant human CD26 (rhDipeptidyl peptidase IV), R&D Systems CAT# 1180-SE (human, UniProt P27487 29-766); experiment: SPR (Biacore), IgG1 over CD26
# T1 construct: also called hu-CD26; soluble human CD26
# Protocol: Fabs produced in E. coli as described below were diluted in PBS in a concentration of ˜0.5 μM for the assay. A typical recording included a 3 minute period of injection of the Fab followed by a period of 15 minutes of dissociation, and analysis was performed based on the raw data of the binding curves accordingly.
# Analyses thereof were performed using Biacore® as described in Example 1, excepting the binding partners were the rhuMAbs noted above.
# T1 sequence (P27487 29-766 limits assumed): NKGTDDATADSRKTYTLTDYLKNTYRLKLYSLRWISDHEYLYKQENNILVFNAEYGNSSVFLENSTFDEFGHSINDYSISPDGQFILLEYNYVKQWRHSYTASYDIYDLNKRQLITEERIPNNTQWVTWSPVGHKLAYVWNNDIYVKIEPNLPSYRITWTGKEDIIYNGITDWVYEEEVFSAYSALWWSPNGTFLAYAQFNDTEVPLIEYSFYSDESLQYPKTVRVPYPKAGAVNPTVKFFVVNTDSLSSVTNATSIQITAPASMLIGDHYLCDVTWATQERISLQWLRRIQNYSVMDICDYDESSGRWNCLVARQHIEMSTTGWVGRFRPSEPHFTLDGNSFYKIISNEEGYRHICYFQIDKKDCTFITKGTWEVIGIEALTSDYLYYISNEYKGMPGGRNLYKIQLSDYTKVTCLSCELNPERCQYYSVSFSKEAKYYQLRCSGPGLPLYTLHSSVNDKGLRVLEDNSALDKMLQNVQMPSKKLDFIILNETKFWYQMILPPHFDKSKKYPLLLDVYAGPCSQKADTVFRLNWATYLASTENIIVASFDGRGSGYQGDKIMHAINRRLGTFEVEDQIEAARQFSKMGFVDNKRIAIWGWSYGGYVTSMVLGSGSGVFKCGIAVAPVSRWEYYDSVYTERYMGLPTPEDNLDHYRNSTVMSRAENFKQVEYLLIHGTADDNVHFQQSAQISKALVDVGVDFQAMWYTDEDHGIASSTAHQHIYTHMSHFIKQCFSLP
binder,measurement,setting,value
"rhuMAb 411 (antibody, human IgG1, kappa, V domains shown, also called X411) VH: EVQLVESGAGVKQPGGTLRLTCTASGFSLTTYGVHWVRQAPGKGLEWVGVIWGDGRTDYDAAFMSRVTISKDTSKSTVYLQMNSLRAEDTAVYYCMRNRHDWFDYWGQGTTVTVSS VL: DILLTQSPSSLSATPGERATITCRASQGIRNNLNWYQQKPGQAPRLLIYYSSNLQSGVPSRFSGSGSGTDFTLTISRLQPEDVAAYYCQQSIKLPFTFGSGTKVEIKR",Mean Signal Value,[1],2.08
same,Mean Signal Value,[2],1.8
same,Mean Signal Value,[3],1.94
same,Mean Signal Value,[4],1.92
same,Mean Signal Value,[5],2.45
same,koff,[6],0.000108 s⁻¹
same,kon,[6],485000 M⁻¹ s⁻¹

# Source: patent publication US20090136523A1 (published 2009)
